Measurements taken from article PMC11826995 (2025).

Tests used:
HSPB6 phosphopeptide = target: T1, HSPB6 phosphopeptide (Homo sapiens, UniProt O14558); test: fluorescence anisotropy
T1 chain: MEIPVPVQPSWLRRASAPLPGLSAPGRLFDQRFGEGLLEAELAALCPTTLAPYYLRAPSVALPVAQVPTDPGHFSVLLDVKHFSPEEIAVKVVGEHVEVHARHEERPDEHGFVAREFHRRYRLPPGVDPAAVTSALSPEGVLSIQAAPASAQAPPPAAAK

[1] = target: MED1 DRIP-2 coregulator peptide (Homo sapiens, UniProt Q15648); test: anisotropy
[2] = target: EP300 coregulator peptide (Homo sapiens, UniProt Q09472); test: fluorescence anisotropy
Sequence of EP300 coregulator peptide (Q09472 2-2414): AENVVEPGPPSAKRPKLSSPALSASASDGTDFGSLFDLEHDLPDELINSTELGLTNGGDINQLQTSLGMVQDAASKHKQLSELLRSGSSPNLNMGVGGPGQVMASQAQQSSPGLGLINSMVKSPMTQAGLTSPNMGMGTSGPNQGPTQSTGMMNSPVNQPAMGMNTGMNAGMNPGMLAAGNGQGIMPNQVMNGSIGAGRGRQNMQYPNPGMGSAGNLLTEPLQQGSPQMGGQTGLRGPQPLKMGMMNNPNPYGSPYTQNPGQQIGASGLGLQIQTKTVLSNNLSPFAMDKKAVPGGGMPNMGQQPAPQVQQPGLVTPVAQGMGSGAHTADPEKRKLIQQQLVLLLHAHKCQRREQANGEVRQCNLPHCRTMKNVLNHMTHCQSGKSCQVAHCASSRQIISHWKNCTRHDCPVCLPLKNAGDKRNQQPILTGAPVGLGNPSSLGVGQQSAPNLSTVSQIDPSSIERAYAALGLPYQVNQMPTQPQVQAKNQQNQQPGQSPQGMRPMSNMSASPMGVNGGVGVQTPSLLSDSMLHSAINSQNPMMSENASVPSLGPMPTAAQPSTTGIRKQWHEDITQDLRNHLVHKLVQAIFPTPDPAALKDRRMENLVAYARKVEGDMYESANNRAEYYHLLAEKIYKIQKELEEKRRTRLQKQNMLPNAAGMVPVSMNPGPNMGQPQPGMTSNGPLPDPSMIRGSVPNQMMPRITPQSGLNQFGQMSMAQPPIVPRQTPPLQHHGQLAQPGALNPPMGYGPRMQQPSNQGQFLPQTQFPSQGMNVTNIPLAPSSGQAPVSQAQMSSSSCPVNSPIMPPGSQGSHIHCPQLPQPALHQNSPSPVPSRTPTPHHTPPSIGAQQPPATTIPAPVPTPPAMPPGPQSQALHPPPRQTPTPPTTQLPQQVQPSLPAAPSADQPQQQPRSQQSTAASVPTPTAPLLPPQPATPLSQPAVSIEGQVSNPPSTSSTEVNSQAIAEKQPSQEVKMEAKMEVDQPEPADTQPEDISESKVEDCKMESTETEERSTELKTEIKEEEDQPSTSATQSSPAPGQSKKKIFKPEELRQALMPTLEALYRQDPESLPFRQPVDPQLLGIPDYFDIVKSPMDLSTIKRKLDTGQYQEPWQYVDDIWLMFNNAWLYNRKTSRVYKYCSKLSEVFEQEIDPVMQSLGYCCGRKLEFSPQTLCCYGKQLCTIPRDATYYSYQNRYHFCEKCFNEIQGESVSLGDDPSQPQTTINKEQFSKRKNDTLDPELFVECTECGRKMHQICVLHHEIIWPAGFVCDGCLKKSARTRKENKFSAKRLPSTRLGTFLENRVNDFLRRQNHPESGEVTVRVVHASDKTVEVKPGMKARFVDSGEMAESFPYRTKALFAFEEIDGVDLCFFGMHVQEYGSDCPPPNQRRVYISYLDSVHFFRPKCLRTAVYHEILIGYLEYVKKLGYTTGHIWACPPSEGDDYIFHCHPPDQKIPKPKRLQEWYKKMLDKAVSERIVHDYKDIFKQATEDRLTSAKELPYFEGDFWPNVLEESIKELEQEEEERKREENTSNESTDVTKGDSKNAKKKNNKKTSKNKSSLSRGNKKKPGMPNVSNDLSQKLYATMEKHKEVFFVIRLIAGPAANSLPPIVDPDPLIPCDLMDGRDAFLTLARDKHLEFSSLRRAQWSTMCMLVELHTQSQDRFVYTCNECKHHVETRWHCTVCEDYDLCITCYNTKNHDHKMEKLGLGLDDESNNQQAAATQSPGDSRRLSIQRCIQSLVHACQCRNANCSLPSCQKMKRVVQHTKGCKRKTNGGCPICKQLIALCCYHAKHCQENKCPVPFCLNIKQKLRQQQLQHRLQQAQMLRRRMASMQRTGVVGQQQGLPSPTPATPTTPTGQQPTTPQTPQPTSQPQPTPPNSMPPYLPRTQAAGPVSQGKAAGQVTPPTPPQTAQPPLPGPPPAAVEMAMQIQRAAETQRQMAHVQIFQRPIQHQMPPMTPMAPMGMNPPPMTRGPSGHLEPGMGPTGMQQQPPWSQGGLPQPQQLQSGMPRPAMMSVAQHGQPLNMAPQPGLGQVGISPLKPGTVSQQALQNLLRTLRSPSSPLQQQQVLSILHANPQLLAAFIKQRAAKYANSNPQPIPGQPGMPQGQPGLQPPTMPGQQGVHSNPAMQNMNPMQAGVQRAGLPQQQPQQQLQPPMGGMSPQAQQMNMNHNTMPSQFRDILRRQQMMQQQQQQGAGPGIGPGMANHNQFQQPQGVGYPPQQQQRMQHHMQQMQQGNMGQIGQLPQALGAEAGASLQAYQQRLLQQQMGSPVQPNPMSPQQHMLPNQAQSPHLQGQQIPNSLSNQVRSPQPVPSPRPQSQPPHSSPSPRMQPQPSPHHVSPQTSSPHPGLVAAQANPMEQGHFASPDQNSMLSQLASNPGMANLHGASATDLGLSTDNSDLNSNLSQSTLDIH

Sequence of MED1 DRIP-2 coregulator peptide (Q15648 whole entry): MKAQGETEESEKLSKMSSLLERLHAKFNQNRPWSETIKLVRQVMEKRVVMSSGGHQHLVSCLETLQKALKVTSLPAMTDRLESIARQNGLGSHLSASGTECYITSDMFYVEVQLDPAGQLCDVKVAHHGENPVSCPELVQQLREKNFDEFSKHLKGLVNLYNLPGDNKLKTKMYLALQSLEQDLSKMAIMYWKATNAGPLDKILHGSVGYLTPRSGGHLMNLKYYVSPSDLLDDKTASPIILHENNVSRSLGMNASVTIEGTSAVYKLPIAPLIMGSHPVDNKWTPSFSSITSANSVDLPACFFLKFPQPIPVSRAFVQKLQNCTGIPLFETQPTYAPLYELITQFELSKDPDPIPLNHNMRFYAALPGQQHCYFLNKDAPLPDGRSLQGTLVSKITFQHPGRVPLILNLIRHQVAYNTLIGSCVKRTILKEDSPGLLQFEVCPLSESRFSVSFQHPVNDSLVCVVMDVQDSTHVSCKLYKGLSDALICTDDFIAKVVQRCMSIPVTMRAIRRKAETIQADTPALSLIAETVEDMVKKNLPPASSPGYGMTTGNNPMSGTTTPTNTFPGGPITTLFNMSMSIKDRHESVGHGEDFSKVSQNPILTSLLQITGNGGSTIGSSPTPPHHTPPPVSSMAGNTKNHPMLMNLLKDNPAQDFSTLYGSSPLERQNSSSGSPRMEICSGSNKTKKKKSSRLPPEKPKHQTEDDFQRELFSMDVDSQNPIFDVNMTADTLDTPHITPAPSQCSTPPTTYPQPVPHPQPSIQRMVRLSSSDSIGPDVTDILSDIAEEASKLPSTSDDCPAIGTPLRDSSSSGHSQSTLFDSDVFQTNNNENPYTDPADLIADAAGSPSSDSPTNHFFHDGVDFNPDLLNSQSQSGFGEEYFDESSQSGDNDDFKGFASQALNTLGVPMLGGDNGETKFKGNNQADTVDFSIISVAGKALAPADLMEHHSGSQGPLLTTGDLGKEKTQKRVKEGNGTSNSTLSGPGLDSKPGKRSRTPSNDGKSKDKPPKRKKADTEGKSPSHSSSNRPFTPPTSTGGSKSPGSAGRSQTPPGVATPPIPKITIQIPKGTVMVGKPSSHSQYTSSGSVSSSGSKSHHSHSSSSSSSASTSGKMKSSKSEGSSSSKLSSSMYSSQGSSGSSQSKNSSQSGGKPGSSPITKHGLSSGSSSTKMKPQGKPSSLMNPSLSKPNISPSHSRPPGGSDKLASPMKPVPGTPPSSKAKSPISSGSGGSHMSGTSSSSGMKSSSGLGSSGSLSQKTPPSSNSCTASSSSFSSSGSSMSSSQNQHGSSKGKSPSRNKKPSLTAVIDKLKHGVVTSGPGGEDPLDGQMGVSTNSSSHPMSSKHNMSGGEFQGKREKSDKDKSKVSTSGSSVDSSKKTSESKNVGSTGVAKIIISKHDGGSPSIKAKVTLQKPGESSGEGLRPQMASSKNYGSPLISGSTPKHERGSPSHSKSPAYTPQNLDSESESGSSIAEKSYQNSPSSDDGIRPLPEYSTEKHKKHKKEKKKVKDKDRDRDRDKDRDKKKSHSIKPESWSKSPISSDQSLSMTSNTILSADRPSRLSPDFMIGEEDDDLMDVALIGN

B1: 14-3-3σ (protein)
chain: MERASLIQKAKLAEQAERYEDMAAFMKGAVEKGEELSCEERNLLSVAYKNVVGGQRAAWRVLSSIEQKSNEEGSEEKGPEVREYREKVETELQGVCDTVLGLLDSHLIKEAGDAESRVFYLKMKGDYYRYLAEVATGDDKKRIIDSARSAYQEAMDISKKEMPPTNPIRLGLALNFSVFHYEIANSPEEAISLAKTTFDEAMADLHTLSEDSYKDSTLIMQLLRDNLTLWTADNAGEEGGEAPQEPQS
modifications: phosphorylated HSPB6 peptide
- Kd (HSPB6 phosphopeptide): 990 nM

B2: PPARγ (protein)
chain: MGETLGDSPIDPESDSFTDTLSANISQEMTMVDTEMPFWPTNFGISSVDLSVMEDHSHSFDIKPFTTVDFSSISTPHYEDIPFTRTDPVVADYKYDLKLQEYQSAIKVEPASPPYYSEKTQLYNKPHEEPSNSLMAIECRVCGDKASGFHYGVHACEGCKGFFRRTIRLKLIYDRCDLNCRIHKKSRNKCQYCRFQKCLAVGMSHNAIRFGRMPQAEKEKLLAEISSDIDQLNPESADLRALAKHLYDSYIKSFPLTKAKARAILTGKTTDKSPFVIYDMNSLMMGEDKIKFKHITPLQEQSKEVAIRIFQGCQFRSVEAVQEITEYAKSIPGFVNLDLNDQVTLLKYGVHEIIYTMLASLMNKDGVLISEGQGFMTREFLKSLRKPFGDFMEPKFEFAVKFNALELDDSDLAIFIAVIILSGDRPGLLNVKPIEDIQDNLLQALELQLKLNHPESSQLFAKLLQKMTDLRQIVTEHVQLLQVIKKTETDMSLHPLLQEIYKDLY
- Kd [1]: 647 nM
- Kd [2]: > 10000 nM
